In paper PMC12525494:

Legend:
[1] = target: ST2 receptor on Raw 264.7 cells (mouse (endogenous in Raw 264.7)) (UniProt P14719)
[2] = target: ST2 receptor on Raw 264.7 cells (mouse (endogenous in Raw 264.7)) (UniProt P14719); remark: listed apart in the source

Sequence of UniProt P14719 (P14719 27-567): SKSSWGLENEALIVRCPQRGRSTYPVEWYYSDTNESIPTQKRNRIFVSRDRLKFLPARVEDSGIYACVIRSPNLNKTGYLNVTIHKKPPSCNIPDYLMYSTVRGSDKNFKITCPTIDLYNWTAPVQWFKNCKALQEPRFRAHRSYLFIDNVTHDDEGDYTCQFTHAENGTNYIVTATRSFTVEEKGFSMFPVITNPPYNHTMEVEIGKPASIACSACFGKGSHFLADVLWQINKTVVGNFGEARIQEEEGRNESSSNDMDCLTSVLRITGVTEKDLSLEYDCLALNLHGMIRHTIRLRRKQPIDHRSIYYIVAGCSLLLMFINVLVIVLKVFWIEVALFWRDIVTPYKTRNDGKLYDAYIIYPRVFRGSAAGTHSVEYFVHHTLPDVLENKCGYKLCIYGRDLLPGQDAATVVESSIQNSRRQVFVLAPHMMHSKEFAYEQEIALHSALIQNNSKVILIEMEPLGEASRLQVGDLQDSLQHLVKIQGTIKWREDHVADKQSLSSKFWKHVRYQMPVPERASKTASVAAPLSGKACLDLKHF

immunotoxin IL-33αS (murine IL-33 fused to the ribotoxin α-sarcin) (from UniProt P00655 28-177)
Viability (%) on Raw 264.7 cell line, 1 µM protein, 72 h [1]: 40%
MTT viability of Raw 264.7 cells, IC50 at 72 h [2]: 300 nM
